PMC9348671, “Structural elucidation of substrate-bound aminoglycoside acetyltransferase (3)-IIIa” (PLoS ONE, 2022)

Target: the molecule itself
Experiment: SEC; HiLoad Superdex 200 26/60 in 20 mM Tris pH 7.5, 150 mM NaCl; tag removed

B1: aminoglycoside acetyltransferase (3)-IIIa (enzyme)
chain: MTDLNIPHTHAHLVDAFQALGIRAGQALMLHASVKAVGAVMGGPNVILQALMDALTPDGTLMMYAGWQDIPDFIDSLPDALKAVYLEQHPPFDPATARAVRENSVLAEFLRTWPCVHRSANPEASMVAVGRQAALLTANHALDYGYGVESPLAKLVAIEGYVLMLGAPLDTITLLHHAEYLAKMRHKNVVRYPCPILRDGRKVWVTVEDYDTGDPHDDYSFEQIARDYVAQGGGTRGKVGDADAYLFAAQDLTRFAVQWLESRFGDSASYG
notes: AAC(3)-IIIa from Pseudomonas aeruginosa, GenBank CAA39184.1; gene synthesized with codons optimized for E. coli, in pET15b between NdeI and BamHI; Hexahistidine tag removed by thrombin; residues of the thrombin site and vector may be left at the N-terminus; Crystals held CoASH and an aminoglycoside (gentamicin, sisomicin or neomycin); also called AAC(3)-IIIa; iso^A; source: LOBSTR E. coli, …
stoichiometry N: 2
